Results published in publication PMC8318917 (The Journal of Biological Chemistry, 2021).

Target: T1, human TRADD death domain (199–312) (human, UniProt Q15628 199-312)
T1 sequence: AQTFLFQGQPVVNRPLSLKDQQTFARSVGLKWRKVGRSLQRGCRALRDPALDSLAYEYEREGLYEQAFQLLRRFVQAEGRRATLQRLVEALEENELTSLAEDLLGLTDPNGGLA
Experiment: NMR solution structure

B1: human p75 neurotrophin receptor death domain (330–427) (domain or fragment)
chain: KGDGGLYSSLPPAKREEVEKLLNGSAGDTWRHLAGELGYQPEHIDSFTHEACPVRALLASWATQDSATLDALLAALRRIQRADLVESLCSESTATSPV
Does B1 bind?
Result: binds
